# Experimental data taken from doi:10.1101/2021.09.16.460631.
# Key:
# Assay in all cases: EMSA
# [1] = tested on: Protamine 1 K49A (Mus musculus (C57BL/6N, P1 K49A/K49A knock-in))
# [2] = tested on: Protamine 1 (WT P1) (Mus musculus (C57BL/6N background))
# [3] = tested on: Protamine 2 precursor (pro P2) (Mus musculus (C57BL/6N, P1 K49A/K49A knock-in))
# [4] = tested on: Protamine 2, mature (WT P2) (Mus musculus (C57BL/6N background))
substance,measurement,setting,value
~300 bp linear DNA (280 bp PCR product),Kd,[1],950 nM
same,Kd,[2],680 nM
same,Kd,[3],840 nM
same,Kd,[4],670 nM
